According to patent US20240002477A1 (UNIVERSITY OF CHICAGO, published 2024):

Legend:
[1] = target: SARS-CoV-2 spike receptor-binding domain (SARS-CoV-2, UniProt P0DTC2 319-541); assay: mAb table, Specificity column (recombinant IgG1; ELISA)
SARS-CoV-2 ORF8 protein = target: T1, SARS-CoV-2 ORF8 protein (SARS-CoV-2, UniProt P0DTC8 16-121); assay: as above
T1 construct: domain: Ig-like domains; also called open reading frame 8
T1 sequence (P0DTC8 16-121, tags left off): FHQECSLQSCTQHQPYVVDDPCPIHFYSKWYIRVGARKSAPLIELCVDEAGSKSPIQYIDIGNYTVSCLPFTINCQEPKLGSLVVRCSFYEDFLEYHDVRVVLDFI

Binder	binding result [1]	binding result (SARS-CoV-2 ORF8 protein)
S564-14 (antibody, V domains shown, recombinant human IgG1) VH: EVQLVESGGGLVQPGGSLRLSCAASGLTFSSYWMSWARQAPGKGLEWVANIKKDGSEKYYVDSVKGRFTISRDNAKNSLYLQMNSLRVEDTAVYYCASEPPHYGGNSGAEYFQHWGQGTLVTVSS VL: SYVLTQPPSVSVAPGKTARITCGGNNIGSKSVHWYQQRPGQAPVLVIYYDSDRPSGIPERFSGSNSGNTATLTISRVEAGDEADYYCQVWDSSSDHHYVFGTGTKVTVL	binds	
S144-67 (antibody, V domains shown, recombinant human IgG1) VH: EVQLVQSGAEVKKPGESLKISCKGSGYSFTTYWIAWVRQMPGKGLEWVGIIYPDDSDTRYSPSFQGQVTISADKSIGTAYLQWSSLKASDTAMYYCARGQYYDFWSGAGGVDVWGQGTTVTVSS VL: QSVLTQPPSVSGAPGQRVTISCTGSRSNIGAGYDVQWYQQVPGTAPKLLISGNSNRPSGVPDRFSGSKSGTSASLAITGLQAEDEADYYCQSYDSSLSGLRVFGGGTKLTVL	binds	
S24-1224 (antibody, V domains shown, recombinant human IgG1) VH: QVQLVQSGAEVKKPGASVRVSCKASGYTFTSYYIYWVRQAPGQGLEWMGVINPSGGSTSYAQKFQGRVTLTRDTSTSTVYMDLSSLRSEDTAVYYCARDPIMWEVVTRGRGNWFDPWGQGTLVTVSS VL: QSVLTQPPSVSGAPGQRVTIPCTGSSFNIGAGYDVHWYQQLPGTAPKLLIFGNSNRPSGVPDRFSGSRSGTSASLAITGLQAEDEADYYCQSYDSSLSGVVFGGGTTLTVL	binds	
S144-509 (antibody, V domains shown, recombinant human IgG1) VH: EVQLVQSGAEVKKPGESLKISCKGSAYTFTTYWIGWVRQMPGKGLEWMGIIYPGDSDTRYSPSFQGQVTISADKSISTAYLQWSSLKASDTAMYYCARLLLVAGPFDYWGQGTLVTVSS VL: not shown	binds	
S144-69 (antibody, V domains shown, recombinant human IgG1) VH: EVQLVQSGAEVKKPGESLKISCKGSGYSFTSYWIGWVRQMPGKGLEWMGIIYPGDSDTRYSPSFQGQVTISADKSITTAYLQWSSLKASDTAMYYCARTQTTNWFDSWGQGTLVTVSS VL: DIQMTQSPSTLSVSVGDRVTITCRASQSVSSWLAWYQQKPGKAPKLLIYDASSLESGVPSRFSGSGSGTEFTLTISSLQPDDFATYYCQQYNSFYTFGQGTKLEIK	binds	
S144-466 (antibody, V domains shown, recombinant human IgG1) VH: EVQLVQSGAEVKKPGESLKISCKGSGYRFTRYWIGWVRQMPGKGLEWMGIIYLGDSETRYSPSFQGQVTISADNSISTAYLQWSSLKASDTAMYYCARSSNWNYGDYWGQGTLVTVSS VL: DIQMTQSPSTLSASVGDRVTITCRASQSITSWLAWYQQKSGKAPKLLIYDASSLESGVPSRFSGSGSGTEFTLTISSLQPDDFATYYCQQYNSYPWTFGQGTKVEIK	binds	
S20-74 (antibody, V domains shown, recombinant human IgG1) VH: QVQLQESGPGLVKPSETLSLTCTVSGGSISSHYWSWIRQPPGKGLEQIGYMYYSGSTNYNPSLKSRVIISVDTSKNQFSLKLSSVTAADTAVYYCAGRDQLLYGADGFDIWGQGTMVTVSS VL: QSALTQPPSASGSPGQSVTISCTGTSSDVGGYNYVSWYQQHPGKAPKLMIYEVSKRPSGVPDRYSGSKSGNTASLTVSGLQAEDEADYYCSSYAGSSNHVIFGGGTKLTVL	binds	
S564-138 (antibody, V domains shown, recombinant human IgG1) VH: QVLLVQSGAEVKKPGASVKVSCKASGYTFTGYYLHWVRQAPGQGLEWMGWINPISGGTNYAQNFQDRVTMTRDTSIITAYMELSRLRSDDTAVYYCARLAYYYDSSAYRGAFDIWGQGTMVTVSS VL: QSALTQPASVSGSPGQSITISCTGTSSDVGGYNYVSWYQQHPGKAPKLMIYEVSNRPSGVSDRFSGSKSGNTASLTISGLQAEDEADYYCSSYTSSSTYVFGTGTKVTVL	binds	
S144-1406 (antibody, V domains shown, recombinant human IgG1) VH: QVQLVQSGAEVKKPGASVKVSCKASGYTFTTYAMHWVRQAPGQRLEWMGWINAGNGNTKYSQNFQGRVTITRDTSASTAYMELSSLRSEDTAVYYCASLVGGDSSSWYDYMDVWGKGTTVTVSS VL: not shown	binds	
S144-1079 (antibody, V domains shown, recombinant human IgG1) VH: QVQLVQSGAEVKKPGSSVKVSCKASGDTFGSYSITWVRQAPGQGLEWMGRIIPVLGIANYAQKFQGRVTITADKSTSTAYMELSSLRSEDTAVYYCAGGGCSGGNCYSWYNWFDPWGQGSLVTVSS VL: EIVLTQSPGTLSLSPGERATLSCRASQSVSSNYLAWYQQKPGQAPRLLIYGASSRATGIPERFSGSGSGTDFTLTISRLEPEDFAVYYCQQYGRSPYTFGQGTKLEIK	binds	
S24-1345 (antibody, V domains shown) VH: QLQLQESGPGLVKPSETLSLTCTVSGGSISSSSYYWGWIRQPPGKGLEWIGSIYYSGSTYYNPSLKSRVTISVDTSKNQFSLKLSSVTAADTAVYYCARRIRRPTSEVVITYVFDYWGQGTLVTVSS VL: AIQLTQSPSSLSASVGDRVTITCRASQGISSALAWYQQKPGKAPKLLIYDASSLESGVPSRFSGSGSGTDFTLTISSLQPEDFATYYCQQFNSYLTFGGGTKVEIK		binds
S24-278 (antibody, V domains shown, recombinant human IgG1) VH: QVQLVQSGAEVKKPGASVKVSCKASGYTFTGYYMHWVRQAPGQGLEWMGWINPNSGDTNYAQKFQGWVTMTRDTSLSTAYMELSRLKSDDTAVYYCARVGVGEYSGRHYYYYGMDVWGQGTTVTVSS VL: not shown		binds
S24-636 (antibody, V domains shown) VH: EVQLVESGGGLVQPGGSLRLSCAASGFTLSSYWMSWVRQAPGKGLEWVANIKQDGSEKYYVDSVKGRFTISRDNAKNSLYLQMNSLRAEDTAVYYCARDLTATWFDPWGQGTLVTVSS VL: QTVVTQEPSFSVSPGGTVTLTCGLSSGSVSTSYYPSWYQQTPGQAPRTLIYSTNKRSSGVPDRFSGSILGNKAALTITGAQADDESDYYCVLYMGSGMSVFGGGTKLTVL		binds
S24-1378 (antibody, V domains shown, recombinant human IgG1) VH: EVQLVESGGGLVQPGGSLRLSCAASGFTVSSNYMSWVRQAPGKGLEWVSVIYSGGSTYYADSVKGRFTISRHNSKNTLYLQMNSLRAEDTAVYYCAREGYCTNGVCYRHAFDIWGQGTMVTVSS VL: QTVVTQEPSFSVSPGGTVTLTCGLSSGSVSTSYYPSWYQQTPGQAPRTLIYSTNTRSSGVPDRFSGSILGNKAALTITGAQADDESDYYCVLYMGSGISVFGGGTKLTVL		binds
S24-1384 (antibody, V domains shown) VH: EVQLVESGGGLVQPGGSLRLSCAVSGFTFSSYSMNWVRQAPGKGLEWVSYISSSSSIIYYADSVKGRFTISRDNAKNSLYLQMNSLRAEDTAVYYCARDFLDYSRSYSYGMDVWGQGTTVTVSS VL: SYVLTQPPSVSVAPGQTARITCGGDNIGSKNVHWYQQKPGQAPVLVVFDDSDRPSGIPERFSGSNSGNTATLTISRVEAGDEADYYCQVWDSSSDHYVVFGGGTKLTVL	binds	
S564-152 (antibody, V domains shown, recombinant human IgG1) VH: QVQLVESGGGVVQPGRSLRLSCAASGFTFSYYGMHWVRQAPGKGLEWVAVIWYDGSNKHYADSVKGRFTISRDNSKNTLYLQMNSLRAEDTAVYYCAKNAAPYCSGGSCYGTYFDYWGQGTLVTVSS VL: DIQMTQSPSSLSASVGDRVTITCQASQDINNYLNWYQQKPGKAPKLLIYDASNLETGVPSRFSGSGSGTDFTFTISSLQPEDIATYYCQQYDNVPPHTFGQGTKLEIK	binds	
